Reference: publication PMC10275983 (2023)
No end group written: not given here.

Legend:
Experiment in all cases: SPR
[1] = target: S1-NTD (ACROBiosystems S1D-C52H6) (SARS-CoV-2 (Wuhan-Hu-1 strain))
[2] = target: S1-RBD (ACROBiosystems SPD-C82E9) (SARS-CoV-2 (Wuhan-Hu-1 strain), UniProt P0DTC2 319-541)
[3] = target: S1 (Novus Biologicals NBP2-90985) (SARS-CoV-2, UniProt P0DTC2 14-685)
[4] = target: S2 (ACROBiosystems S2N-C52E8) (SARS-CoV-2 (Wuhan-Hu-1 strain), UniProt P0DTC2 14-1273)

Row | Binder | Kd [1] [nM] | Kd [2] [nM] | Kd [3] [nM] | Kd [4] [nM]
1 | ACINPYCEHHIYLEHCA (not fully specified (bridges); also: bicyclic peptide, scaffold not given here) [E7 Bicycle (exemplar of epitope group 7)] | 4000 |  |  | 
2 | ACPYVAGRGTCLLCA (not fully specified (bridges); also: Bicycle) [E2 Bicycle (canonical exemplar of epitope group 2)] |  | 650 | 830 | 
3 | ACFPEPWLGLCTPCA (not fully specified (bridges); also: Bicycle) [E11 Bicycle (exemplar of epitope group 11)] |  |  |  | 530
4 | ACANPDNPVCRFYCA (not fully specified (bridges); also: bicyclic peptide, scaffold not named) [E5 Bicycle (canonical exemplar of epitope group 5)] |  |  | 24 | 
5 | ACSSKFCDAWWNFNRCA (not fully specified (bridges); also: Bicycle) [E12 Bicycle (exemplar of epitope group 12)] |  |  |  | 810
6 | ACMNPFFYDCETVCA (not fully specified (bridges); also: bicyclic peptide, scaffold not named) [E9 Bicycle (exemplar of epitope group 9)] |  | 4100 | 3800 | 
7 | ACIPLDWTCMIACA (not fully specified (bridges); also: bicyclic peptide, scaffold not named) [E4 Bicycle (exemplar of epitope group 4)] | 440 |  | 2900 | 
8 | ACEYVGPMCYRLYCA (not fully specified (bridges); also: Bicycle) [E1 Bicycle (exemplar of epitope group 1)] |  | 3600 | 5100 | 
9 | ACDHYHCPWLALGGSCA (not fully specified (bridges); also: bicyclic peptide, scaffold not given here) [E6 Bicycle (exemplar of epitope group 6)] | 3900 |  |  | 
10 | ACEDNDWVYCSTCA (not fully specified (bridges); also: Bicycle) [E3 Bicycle (exemplar of epitope group 3)] |  | 2300 | 2500 | 
